The record followed here is patent US20050221433A1.

Sequence of hIL18BPa (58-192).TG.his (O95998 other isoform, or with tags, fused parts or gaps): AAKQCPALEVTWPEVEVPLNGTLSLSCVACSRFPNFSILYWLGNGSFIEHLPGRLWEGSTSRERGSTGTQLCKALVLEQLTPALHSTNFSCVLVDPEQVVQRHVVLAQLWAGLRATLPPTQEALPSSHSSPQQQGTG
Sequence of hIL18BPa (1-192).His (O95998 31-194): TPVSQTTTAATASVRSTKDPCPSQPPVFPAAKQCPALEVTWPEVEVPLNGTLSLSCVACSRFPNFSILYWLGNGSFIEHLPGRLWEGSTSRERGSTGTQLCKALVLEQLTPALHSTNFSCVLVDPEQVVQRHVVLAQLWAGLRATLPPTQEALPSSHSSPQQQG
Sequence of hIL18BPa (1-168).TG.hFc (O95998 other isoform, or with tags, fused parts or gaps): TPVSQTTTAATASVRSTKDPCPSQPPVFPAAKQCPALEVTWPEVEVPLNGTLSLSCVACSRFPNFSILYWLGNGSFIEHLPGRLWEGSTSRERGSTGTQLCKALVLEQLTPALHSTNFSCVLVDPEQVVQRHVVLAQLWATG
Sequence of hIL18BPa (64-192).TG.hFc (O95998 other isoform, or with tags, fused parts or gaps): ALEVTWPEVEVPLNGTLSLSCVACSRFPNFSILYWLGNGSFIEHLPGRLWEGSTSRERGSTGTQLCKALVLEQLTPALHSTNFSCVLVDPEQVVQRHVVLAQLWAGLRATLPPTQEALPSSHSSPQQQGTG

The target of this assay is recombinant human IL-18 (human) (UniProt Q14116). Description: cell-based or functional assay.
Sequence of recombinant human IL-18 (human) (Q14116 37-193 limits assumed): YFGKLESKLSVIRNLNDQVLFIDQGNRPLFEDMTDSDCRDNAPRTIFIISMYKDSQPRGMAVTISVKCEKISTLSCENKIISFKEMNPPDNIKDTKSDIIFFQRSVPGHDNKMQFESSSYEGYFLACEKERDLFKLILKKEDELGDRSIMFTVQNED
Consider “hIL18Rβ.SG.hIL18BPa (58-192).TG.hFc (Fc fusion)”, for which the IC50 (M), HEK293/NFkB-luciferase bioassay amounted to 2.3e-09 M.

Turning to “hIL18BPa (58-192) (C129K).TG.hFc (from UniProt O95998 60-194) (Fc fusion)”, the IC50 (M), HEK293/NFkB-luciferase bioassay was 7.42e-11 M.

Regarding “hIL18BPa (58-192) (C129H).TG..hFc (from UniProt O95998 60-194) (Fc fusion)”, the IC50 (M), HEK293/NFkB-luciferase bioassay turned out to be 8.44e-11 M.

Consider “hIL18BPa (58-192) (C129E).TG.hFc (from UniProt O95998 60-194) (Fc fusion)”, for which the IC50 (M), HEK293/NFkB-luciferase bioassay came out at 5.15e-10 M.

Consider “hFc.TG.hIL18BPa (58-192) (C129S). (from UniProt O95998 60-194) (Fc fusion)”, for which the IC50 (M), HEK293/NFkB-luciferase bioassay came to 1.51e-10 M.

With “hIL18BPa (58-192)(C84S).TG.hFc (from UniProt O95998 60-194) (Fc fusion)”, the IC50 (M), HEK293/NFkB-luciferase bioassay stood at 7.38e-09 M.

Regarding “hIL18BPa (58-192) (C62S, C87S, C129S).TG.hFc (from UniProt O95998 60-194) (Fc fusion)”, the IC50 (M), HEK293/NFkB-luciferase bioassay is 7.56e-09 M.

Consider “hIL18BPa (1-192).His (from UniProt O95998 31-194) (receptor)”, for which the IC50 (M), HEK293/NFkB-luciferase bioassay is 2.1e-10 M.

For the substance “hIL18BPa (58-192) (C129D).TG.hFc (from UniProt O95998 60-194) (Fc fusion)”, the IC50 (M), HEK293/NFkB-luciferase bioassay worked out at 2.98e-09 M.

Consider “hIL18BPa(58-192)(C62S, C129S, C148S).TG.hFc (from UniProt O95998 60-194) (Fc fusion)”, for which the IC50 (M), HEK293/NFkB-luciferase bioassay stood at 6.7e-09 M.

In the case of “hIL18BPa (58-192) (C129S, C148S).TG.hFc (from UniProt O95998 60-194) (Fc fusion)”, the IC50 (M), HEK293/NFkB-luciferase bioassay was determined as 7.3e-09 M.

Take “hIL18BPa (58-192).TG.his (from UniProt O95998 60-194) (receptor)”: the IC50 (M), HEK293/NFkB-luciferase bioassay was found to be 4.1e-10 M.

As to “hIL18BPa (58-192)(C87S, C129S, C148S).TG.hFc (from UniProt O95998 60-194) (Fc fusion)”, the IC50 (M), HEK293/NFkB-luciferase bioassay came out at 9.7e-09 M.

On to “hIL18BPa (1-192) (C84S).TG.hFc (from UniProt O95998 31-194) (Fc fusion)”, for which the IC50 (M), HEK293/NFkB-luciferase bioassay stood at 2.6e-05 M.

As to “hIL18BPa (58-192) (C129S).biot.His (from UniProt O95998 60-194) (receptor)”, the IC50 (M), HEK293/NFkB-luciferase bioassay worked out at 4e-11 M.

For “hIL18BPa (58-192)(C62S, C129S).TG.hFc (from UniProt O95998 60-194) (Fc fusion)”, the IC50 (M), HEK293/NFkB-luciferase bioassay worked out at 9e-09 M.

Consider “hIL18BPa (1-192) (C129S).hFc (from UniProt O95998 31-194) (Fc fusion)”, for which the IC50 (M), HEK293/NFkB-luciferase bioassay amounted to 2.05e-10 M.

Regarding “hIL18BPa (1-168).TG.hFc (from UniProt O95998 31-170) (Fc fusion)”, the IC50 (M), HEK293/NFkB-luciferase bioassay was determined as 1.75e-09 M.

For “hIL18BPa (64-192).TG.hFc (from UniProt O95998 66-194) (Fc fusion)”, the IC50 (M), HEK293/NFkB-luciferase bioassay amounted to 7e-09 M.

Turning to “hIL18BPa (58-192)(C87S, C129S).TG.hFc (from UniProt O95998 60-194) (Fc fusion)”, the IC50 (M), HEK293/NFkB-luciferase bioassay amounted to 7.5e-09 M.

In the case of “hIL18BPa (1-192) (C49S, C129S).hIL18Rβ.hFc (Fc fusion)”, the IC50 (M), HEK293/NFkB-luciferase bioassay was found to be 2.06e-10 M.

“hIL18Rβ.hIL18BPa (1-192) (C49S, C129S).hFc (Fc fusion)”: the IC50 (M), HEK293/NFkB-luciferase bioassay turned out to be 1.38e-09 M.
